The target in one data set is T1, PNPase WT (Escherichia coli, UniProt P05055 1-711).
T1 sequence: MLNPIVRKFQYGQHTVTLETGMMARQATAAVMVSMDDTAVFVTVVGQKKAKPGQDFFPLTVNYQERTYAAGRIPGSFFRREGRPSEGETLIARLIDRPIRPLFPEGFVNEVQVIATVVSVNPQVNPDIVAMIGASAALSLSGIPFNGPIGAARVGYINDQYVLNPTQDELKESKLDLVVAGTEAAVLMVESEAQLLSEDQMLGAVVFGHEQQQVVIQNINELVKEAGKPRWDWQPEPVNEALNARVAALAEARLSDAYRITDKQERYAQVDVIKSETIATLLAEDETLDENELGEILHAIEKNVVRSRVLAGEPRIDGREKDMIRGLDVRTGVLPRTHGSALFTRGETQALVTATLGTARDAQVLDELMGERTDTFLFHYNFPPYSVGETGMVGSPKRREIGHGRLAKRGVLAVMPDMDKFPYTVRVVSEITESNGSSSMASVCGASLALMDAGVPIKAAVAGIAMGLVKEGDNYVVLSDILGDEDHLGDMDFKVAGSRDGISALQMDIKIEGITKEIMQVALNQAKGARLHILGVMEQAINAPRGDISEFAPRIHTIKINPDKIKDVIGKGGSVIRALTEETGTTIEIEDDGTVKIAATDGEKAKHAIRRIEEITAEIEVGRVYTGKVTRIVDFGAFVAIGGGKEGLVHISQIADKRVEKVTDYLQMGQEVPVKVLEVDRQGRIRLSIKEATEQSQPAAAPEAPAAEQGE
Kind of data set: cryo-EM; phosphorolytic mode; 8 RNA nt modelled; EMSA: 0.4 uM RNA, PNPase trimer 1:1 and 3:1 over RNA, 20 mM Tris pH 7.5, 100 mM NaCl, 1 mM MgCl2, 1 mM DTT, 30 C 20 min; native PAA gel with 10% glycerol, Tris-glycine pH 8.5. Conditions: protein: recombinant; chain copies: 3; single strand with hairpin. Background: A gel shift assay detects complexes by their altered migration in electrophoresis.

Data set [1] addresses T2, PNPase WT;Hfq (Escherichia coli;Escherichia coli, UniProt P05055;P0A6X3 1-711;1-102, |). Kind of data set: cryo-EM; carrier complex; 50 RNA nt modelled; EMSA: 0.4 uM RNA, PNPase trimer 1:1 and 3:1 over RNA, 20 mM Tris pH 7.5, 100 mM NaCl, 1 mM MgCl2, 1 mM DTT, 30 C 20 min; native PAA gel with 10% glycerol, Tris-glycine pH 8.5. Conditions: protein: recombinant;recombinant; tags: ;; chain copies: 3;6; single strand with hairpin.

In data set [2] the target is T2, PNPase WT;Hfq. Kind of data set: cryo-EM; two stacked Hfq hexamers; EMSA: 0.4 uM RNA, PNPase trimer 1:1 and 3:1 over RNA, 20 mM Tris pH 7.5, 100 mM NaCl, 1 mM MgCl2, 1 mM DTT, 30 C 20 min; native PAA gel with 10% glycerol, Tris-glycine pH 8.5. To be noted: protein: recombinant;recombinant; tags: ;; chain copies: 3;12; single strand.

B1: 3'ETSleuZ (structured_RNA)
RNA: GGGAAAGAUAAGAAUAAAAUCAAAGCAAUAAGCAGUGUCGUGAAACCACCUUCGGGUGGUUUUUUU
As to B1, the binding result with PNPase WT and in the data set with PNPase WT;Hfq [1] was “binds” each time.

B2: CyaR (structured_RNA)
RNA: GCUGAAAAACAUAACCCAUAAAAUGCUAGCUGUACCAGGAACCACCUCCUUAGCCUGUGUAAUCUCCCUUACACGGGCUUAUUUUUU
As for B2, the binding result with PNPase WT;Hfq [2] is recorded as “binds”.

(Values after publication PMC8294330, “A cooperative PNPase-Hfq-RNA carrier complex facilitates bacterial riboregulation”.)
